This is an account of results in doi:10.1101/2025.10.08.681084.

The target of this assay is recombinant Nrf2-6×his (human) (UniProt Q16236). In words: pull-down.
UniProt Q16236, sequence (Q16236 whole entry): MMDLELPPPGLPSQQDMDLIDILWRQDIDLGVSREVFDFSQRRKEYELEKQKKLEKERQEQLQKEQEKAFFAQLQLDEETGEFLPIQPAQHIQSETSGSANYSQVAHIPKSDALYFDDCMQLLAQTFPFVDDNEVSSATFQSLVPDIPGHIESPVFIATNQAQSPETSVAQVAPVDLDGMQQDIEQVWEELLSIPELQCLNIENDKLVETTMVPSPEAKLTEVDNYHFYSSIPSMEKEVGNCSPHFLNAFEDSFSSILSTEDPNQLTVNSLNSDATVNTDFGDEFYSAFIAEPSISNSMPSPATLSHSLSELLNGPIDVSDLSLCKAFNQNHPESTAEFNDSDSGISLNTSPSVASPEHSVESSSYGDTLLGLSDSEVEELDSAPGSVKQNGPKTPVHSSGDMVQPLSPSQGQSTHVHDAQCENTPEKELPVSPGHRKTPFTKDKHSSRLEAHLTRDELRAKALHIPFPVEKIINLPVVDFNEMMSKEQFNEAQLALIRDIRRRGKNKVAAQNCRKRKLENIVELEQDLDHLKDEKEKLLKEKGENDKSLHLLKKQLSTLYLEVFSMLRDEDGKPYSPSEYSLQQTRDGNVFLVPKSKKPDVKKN

Regarding “recombinant K13 (TrK13-WT) (domain or fragment)”, the percent reduction of binding of heme-bound TrK13-WT against heme-free TrK13-WT turned out to be 26%.
